Measured values as given in PMC11006857, “Structure-guided functional suppression of AML-associated DNMT3A hotspot mutations” (Nature Communications, 2024).

B1: MBP-tagged DNMT3A MTase domain R676K (domain or fragment, human, UniProt Q9Y6K1 628-912, looked up)
chain: AEKRKPIRVLSLFDGIATGLLVLKDLGIQVDRYIASEVCEDSITVGMVKHQGKIMYVGDVRSVTQKHIQEWGPFDLVIGGSPCNDLSIVNPARKGLYEGTGRLFFEFYRLLHDARPKEGDDRPFFWLFENVVAMGVSDKRDISRFLESNPVMIDAKEVSAAHRARYFWGNLPGMNRPLASTVNDKLELQECLEHGRIAKFSKVRTITTRSNSIKQGKDQHFPVFMNEKEDILWCTEMERVFGFPVHYTDVSNMSRLARQRLLGRSWSVPVIRHLFAPLKEYFACV
notes: human DNMT3A MTase domain, residues 628-912; source: E. coli BL21(DE3) RIL, purified; not shown: MBP, N-terminal, kept
B2: MBP-tagged DNMT3A MTase domain M674T/R676K (domain or fragment, human, UniProt Q9Y6K1 628-912, looked up)
chain: AEKRKPIRVLSLFDGIATGLLVLKDLGIQVDRYIASEVCEDSITVGTVKHQGKIMYVGDVRSVTQKHIQEWGPFDLVIGGSPCNDLSIVNPARKGLYEGTGRLFFEFYRLLHDARPKEGDDRPFFWLFENVVAMGVSDKRDISRFLESNPVMIDAKEVSAAHRARYFWGNLPGMNRPLASTVNDKLELQECLEHGRIAKFSKVRTITTRSNSIKQGKDQHFPVFMNEKEDILWCTEMERVFGFPVHYTDVSNMSRLARQRLLGRSWSVPVIRHLFAPLKEYFACV
notes: as for B1
B3: DNMT3A^R882H/N879A (crystallised form) (domain or fragment, human)
chain: AEKRKPIRVLSLFDGIATGLLVLKDLGIQVDRYIASEVCEDSITVGMVRHQGKIMYVGDVRSVTQKHIQEWGPFDLVIGGSPCNDLSIVNPARKGLYEGTGRLFFEFYRLLHDARPKEGDDRPFFWLFENVVAMGVSDKRDISRFLESNPVMIDAKEVSAAHRARYFWGNLPGMNRPLASTVNDKLELQECLEHGRIAKFSKVRTITTRSNSIKQGKDQHFPVFMNEKEDILWCTEMERVFGFPVHYTDVSAMSHLARQRLLGRSWSVPVIRHLFAPLKEYFACV
notes: human DNMT3A; the abstract speaks of crystal structures of the methyltransferase domain; The crystallisation methods name only R882H/R676K and R882C/R676K as mutants; probably residues 628-912 like the others; also called DNMT3A^N879A/R882H; N879A/R882H-mutated DNMT3A; source: E. coli BL21(DE3) RIL, purified

Columns and labels:
[1] = target: DNMT3A^R882H/N879A protein (as used for size-exclusion chromatography) (human); test: SEC; Superose 6 Increase 10/300 GL, 100 µL of 3 mg/mL protein, 4 °C, 20 mM Hepes pH 7.2, 250 mM NaCl, 5% glycerol, 5 mM DTT; elution volume against molecular weight standards
[2] = target: the molecule itself; test: as above
[3] = target: the molecule itself; test: crystal structure; DNMT3A MTase domain with S-adenosyl-homocysteine; sitting drop vapor diffusion, 0.2-0.4 M potassium sodium tartrate, 4 °C; homotetramer via RD and FF interfaces

Molecule	binding result [2]	further results
DNMT3A^R882H/N879A protein (as used for size-exclusion chromatography) (domain or fragment)		stoichiometry N [1]: 4
B1	binds	
B2	binds	
B3		stoichiometry N [3]: 4
